The supplement of paper PMC12042874
± gives the uncertainty stated by the source.

Test: amyloid nucleation score (Sup35N fusion, yeast selection) (log enrichment); library NNK3; higher = more nucleation; inactive = no reads after selection
Method in brief: (§1)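 On medium lacking adenine and uracil, psi-negative yeast expressing peptides of 20 random codons fused to Sup35N were grown 7 days at 30°C after a 24-hour induction with 100 μM copper sulfate. Illumina sequencing of input and output plasmid inserts gave the reads, and sequences under 100 input reads were excluded. The nucleation score is the DiMSum log enrichment of output over input reads, centred on the mode score of non-aggregating sequences.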

| Substance | amyloid nucleation score |
| --- | --- |
| LVNIDLFNDYRAVCGLLTRD | inactive |
| IGHGYMVDRWILRVVMVVAL | inactive |
| RSVFCKKFPDKNMVVFGVHL | inactive |
| CYWEPRSWISCRRPILRMSV | inactive |
| RNSFVLWMVSSV | -0.01 ± 0.45 |
| WSISSECGERVFRVRTCH | -0.548 ± 1 |
| MSSQCWRQIGWDTCARS | inactive |
| FASVFVMN | inactive |
| RGCTGIKPLPTSWACAFSTS | inactive |
| KRFHMYVHGSDMEVLLAGKC | inactive |
| NLGTTLYVEICNWRIVLYIV | inactive |
| MILFC | inactive |
| VRVTLWYQTNMGIFEGHSRN | inactive |
| RKHLDLT | inactive |
| NFFNLLGMKLVR | inactive |
| NVASM | inactive |
| DLWDTCCLII | inactive |
| PFGGRR | 0.013 ± 0.47 |
| YVNTDVIVHENVFLLNSHNS | 1.69 ± 0.089 |
| SKFFLPQTEFPQKGLTPITA | inactive |
| ASLTYY | inactive |
| KYLGMMVKNANMLALCYAGW | -0.279 ± 0.68 |
| MVVGCCSEGV | inactive |

| Substance | amyloid nucleation score |
| --- | --- |
| ITRGTYRSPFSFNTRFESGS | inactive |
| DSLTDVMTWELWDIYHVKHE | inactive |
| NNSAM | -0.178 ± 1.1 |
| SNIRVKFHTPSIGMRCLRTR | inactive |
| ILSNINFVRNSFCYYMINFI | inactive |
| RMVRIALTL | inactive |
| YFFSDNRNFRVNPVSNR | inactive |
| SVDWYNFECSIASPF | inactive |
| SSEPMHLEASIPVFAKE | inactive |
| CFLRWNRFL | 0.106 ± 1.1 |
| SKGLCPVWIVLYKACHSMIF | inactive |
| RVYVAWTTCSADKKNSNIMQ | 0.939 ± 0.12 |
| PWFTMVRIGEMVLYLRMQRR | inactive |
| RWAELTEQTCS | inactive |
| ALSDDTDTQAANQLHGCTGW | inactive |
| TCRITP | inactive |
| SMFSLWNS | inactive |
| SSCPYIFYQLST | inactive |
| SSYGSPIIVLNTHSTVGIRI | 1.59 ± 0.11 |
| YKFGVTPWLRFILSNVRKMM | inactive |
| YLDNVFNGPAFLYSGSRDR | 1.02 ± 0.18 |
| AEYQPFRQRHVL | inactive |
| STYVCDGIDG | inactive |

| Substance | amyloid nucleation score |
| --- | --- |
| TGYPGPIKFRRIFYANYYSF | inactive |
| VIVELVCLVMFNVWVGKGLW | -0.054 ± 0.31 |
| LAKCVSVHSIYIHDSICPVG | inactive |
| RRRFCVKGSPGVRFVEWTLR | -0.696 ± 1.1 |
| NYFYRPYSEDSVITQMIVVV | inactive |
| HSGETIYKVWMMGSRTEIAW | inactive |
| ALPYCSLVGCYVCKCRLMWL | 0.541 ± 0.34 |
| KNLKSVSFGRRYAFNSFVFL | 1.25 ± 0.11 |
| SYVDLYVGWLNSWMYVMRSA | inactive |
| RHLPQESKRSSVAAISLM | inactive |
| MNFPR | inactive |
| QIKKAINHHKYFW | inactive |
| SLFRFVDECCMNDFRLRLSC | inactive |
| TNTSFTIVSYTSYR | 0.696 ± 0.27 |
| DHHQIFYVWSLPMA | inactive |
| SFVMGSAANL | inactive |
| VYAEKMMVSSHLCGLRRRFK | inactive |
| AMVYMMNLEIHVYSIRYA | 1.68 ± 0.094 |
| RNPWKFAATRFRLLQNPLVE | -0.185 ± 0.9 |
| LLGRSLH | inactive |
| PSFGDEDTYNRDLALTLMDC | inactive |
| MFGWRNSTLAVKAGSDTRLP | inactive |
| DIVILSTSASSTS | inactive |

| Substance | amyloid nucleation score |
| --- | --- |
| CISFPDDWRSHTI | inactive |
| AFMNWVARRKTRWGGLYGGN | inactive |
| YDRNLNMCLQEMHRNIR | inactive |
| QNVKIRRGICEEFYRRVQLD | inactive |
| RVFHP | inactive |
| DRNLDVPCLDVLRSMLDVCN | -0.464 ± 0.96 |
| VFLVQFFFINFLGNSN | 2.45 ± 0.067 |
| EYENLYLRVQFSYMLLFLVM | -1.33 ± 1.8 |
| PRLRHVICHGRFWNPMIQVG | 0.971 ± 0.19 |
| MCSAEA | inactive |
| QGWPRKITVILFWILQSGSR | inactive |
| ILVHTHLSTLSIRHTASPMT | inactive |
| MRSWRMRGSERFAHSLRGYL | inactive |
| DWRAVLLGITSFA | inactive |
| YYLNKVVSIVNRLFVAFAPC | inactive |
| ELYVMLGDGAFVRAIKDYVS | inactive |
| CHYRYISYVENFPCSERVSI | inactive |
| YLDKRYVVGVFMLDSNLDLS | inactive |
| RGNKTI | inactive |
| CRSAVKMGVPLRILLMY | inactive |
| SSTYSGCWLVLSIKRFVLIE | inactive |
| ICRLVLSNNF | inactive |
| RSLTLKLTGGVLALMRS | inactive |

| Substance | amyloid nucleation score |
| --- | --- |
| CGDLMPNRYTLSSSNTMSNS | inactive |
| SLTRQLEPADNTDPRCVKSV | inactive |
| VICGGNRLRSIQWTFWLWDN | inactive |
| RGSPFSWVGPSDRSWSPKFP | inactive |
| KPVFYGPIRCFISVCI | 1.84 ± 0.09 |
| FLGSLDFVSIKCQITHVRTS | inactive |
| DDLYMFMLIVRMLISQIKRV | inactive |
| LSVMNSVRTWYIIDFATFSC | inactive |
| GEIRSKTTVLP | inactive |
| CSVVSWFEAGFRFNDLMNGV | inactive |
| AHFISFNRYHVARFINAHRL | inactive |
| PDRCFD | inactive |
| RGYSFCRPSHWWKARCVEGE | inactive |
| LFTACNLKIDVLLSTRSFAL | 1.6 ± 0.079 |
| TCSRLVDQFNTFGTVY | inactive |
| STWGEFVH | inactive |
| FCFSGRMTYHFTTWFIKRRS | inactive |
| GIKFAGRRLTSEDL | inactive |
| GSSDNGFFCSLNMN | inactive |
| WNLLWLLFFLCLCHCGIMWK | inactive |
| MLLYYEEGLCIFLLSLNPVC | inactive |
| AFYYRVELVYLAC | inactive |
| DHGSIRRMGELHWMQLR | inactive |

| Substance | amyloid nucleation score |
| --- | --- |
| SYGLFR | inactive |
| YYWTKGGFKEITI | inactive |
| FSDMCGRSFINSSWGGSAGV | inactive |
| LYMFHCAFILSIFMFHTPVH | inactive |
| RQYRSLRFSVLVYPSHISKG | 0.544 ± 0.17 |
| LLSFENNSQLVYVCIDNTLE | inactive |
| CLGAGLRSGSAARLYEFGQV | inactive |
| FKASSGWLDLWD | inactive |
| YLLMTGVWWYYQMCVVVYM | inactive |
| ENLLNMFWMFPLWYLGFNLG | inactive |
| TGMVCNLTWVLYLMLMNRTF | inactive |
| ANCKG | inactive |
| RLLMKV | inactive |
| YLIGRGVMVFNFPWLLHHTN | 1.58 ± 0.1 |
| TFNRWCLVFLLMHNVLVCEW | 0.185 ± 0.33 |
| NIYFLVRDSSRIRHKSVGWQ | 2.17 ± 0.06 |
| SFFEYLPTQPTR | inactive |
| LVSDEPNLGFDN | inactive |
| GTQCWLILCADNLNVLGIGL | 2.58 ± 0.065 |
| HNLHSYEHRVRTSQAV | inactive |

Test: amyloid nucleation score (Sup35N fusion, yeast selection) (log enrichment); library NNK2; higher = more nucleation; inactive = no reads after selection
Method in brief: as §1

| Substance | amyloid nucleation score |
| --- | --- |
| KTFTPSIELGYMGHCDCDT | -1.03 ± 0.45 |
| NYHKWNVDSDFVYKGYGGHC | -0.573 ± 0.48 |
| YKLGTRMSECLRNNVLDSSS | inactive |
| YPDDLVMPLDDQRCKARLGH | 0.665 ± 0.57 |
| LSFRYVFIWIEVFPILGNMR | -1.77 ± 0.34 |
| YYAGADFEGNSCGDSIPACR | -0.208 ± 1.1 |
| WFGLDVNCLRSWFGLWKFVE | 0.089 ± 0.56 |
| SSYGLVKR | 0.655 ± 0.35 |
| DSFASTQYCAVSSSVQLAWQ | 1.45 ± 0.27 |
| SRTRGTLDGS | 0.241 ± 0.36 |
| NSTDSSFGKARYFLSNSYWV | inactive |
| ISTYSMYACFKMSL | 4.88 ± 0.1 |
| FDCRNIREMHTRVYNSCTHP | -0.266 ± 1 |
| LQVLARVDRLSHPGR | 0.636 ± 0.81 |
| DYYNRVISASVYSLGGCC | 2.82 ± 0.075 |
| LRQGCFQTVKLDYRES | -0.032 ± 1.1 |
| FKSVSRSVALLRYPCLPKFS | -0.47 ± 0.74 |
| TPLYFRYVTIHYRGHVKVDV | 0.688 ± 0.81 |
| WIWEKSHWSENISMVRCDVS | 0.379 ± 0.55 |
| RYNHRFKVVLSHNIDLWQGS | 0.689 ± 0.47 |
| RMWFVNNLDDWFLPTCLWDR | inactive |
| AMWFN | 0.932 ± 0.47 |
| CRVNRGRGNSTTLYMMDFGY | 2.7 ± 0.088 |
| TFSCCACWGCFTRNV | 10.55 ± 0.047 |
